US20090291081A1 (AbbVie / Abbott, published 2009)
Positions count from the first letter of the chain named. Where “and” joins values, the source holds several entries; their conditions need not be identical. Equal values may be shown once. Each block holds one binder with its values, some of them ahead of it.

Legend:
human IL-1α [1] = target: T1, human IL-1α (human, UniProt P01583 113-271); experiment: Table 60 heading; dAbs from selection on antigen
T1 construct: also called IL-1alpha; hIL-1α
T1 sequence (looked up): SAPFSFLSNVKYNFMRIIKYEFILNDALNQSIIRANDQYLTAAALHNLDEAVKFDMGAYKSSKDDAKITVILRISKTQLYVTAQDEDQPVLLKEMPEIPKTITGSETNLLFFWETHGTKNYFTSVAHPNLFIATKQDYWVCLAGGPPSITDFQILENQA

human IL-1α [2] = target: T2, human IL-1α (human, UniProt P01583 113-271); experiment: cell-based or functional assay
T2 sequence (looked up): T1 sequence (looked up)

human IL-1β [3] = target: T3, human IL-1β (human, UniProt P01584 117-269); experiment: cell-based or functional assay
human IL-1α [4] = target: T2, human IL-1α; experiment: cell-based or functional assay; remark: listed apart in the source
human IL-1β [5] = target: T3, human IL-1β; experiment: cell-based or functional assay; remark: listed apart in the source
human IL-1β [6] = target: T3, human IL-1β; experiment: yeast surface Fab display, flow cytometry titration
human IL-1β [7] = target: T4, human IL-1β (human, UniProt P01584 117-269); experiment: Table 60 heading; dAbs from selection on antigen
T4 construct: also called IL-1beta; hIL-1β

B1: ABT1-95-A1 (other)
VL: DIQMTQSPSSLSASVGDRVTITCRASRPGVRNLRWYQQKPGKAPKLLIYHVSDLEPGVPSRFSGSGSGTDFTLTISSLQPEDFATYHCRQGYVWPVPFDQGTKVEIKR
notes: VK dAb
binding result (human IL-1α [1]): binds

B2: ABT2-108/ABT1-95-3 hu IgG1/K wt (bispecific antibody, V domains shown)
VH: EVQLLESGGGLVQPGGSLRLSCAASGFTFAEYTMMWVRQAPGKGLEWVSRIGQDGKNTYYADSVKGRFTISRDNSKNTLYLQMNSLRAEDTAVYYCAKYTGRVGVHHLFDYWGQGTLVTSS
VL: DIQMTQSPSSLSASVGDRVTITCRASQPIHGNLRWYQQKPGKAPKLLIYSSSYLQSGVPSRFSGSGSGTDFTLTISSLQPEDFATYHCQQGYRWPVTFGQGTKVEIKR
MRC5 IL-1α (human IL-1α [2]): 300 nM
IL-1β IC50 (human IL-1β [3]): 200 nM
IL-1α IC50 (human IL-1α [4]): 1500 nM

B3: ABT2-65-17/ABT1-95-15 huIgG1/K wt (bispecific antibody, V domains shown)
VH: EVQLLESGGGLVQPGGSLRLSCVASGFTFEDYQMGWVRQAPGKGLEWVSSISAMGNRTYYADSVKGRFTISRDDSKNTLYLQMNSLRAEDTAVYYCAQNLVRLGRSRWMFDYWGQGTLVTVSS
VL: B2 VL with H30V, G31R, Q55E, S56P
MRC5 IL-1β (human IL-1β [5]): 0.094 nM
MRC5 IL-1α (human IL-1α [2]): 2.7 nM

B4: ABT1-222 (other)
VL: B2 VL with H30T, G31R, S50H, Y53V, H87Y
notes: VK dAb
binding result (human IL-1α [1]): binds

B5: ABT1-95-A4 (other)
VL: B1 VL with H50S, V51R, D53F, R89L, V93R, V96P, P97T, D99G
notes: VK dAb
binding result (human IL-1α [1]): binds

B6: ABT1-122-553 (other)
VL: DIQMTQSPSSLSASVGDRVTITCRASQPIWTELKWYQQKPGKAPKLLIYGSSSLQSGVPSRFSGSGSGTDFTLTISSLQPEDFATYYCQQFAYFPATFGQGTKVEIKR
notes: VK dAb
binding result (human IL-1α [1]): binds

B7: ABT1-207 (other)
VH: EVQLLESGGGLIQPGGSLRLSCAASGFTFGRYYMSWVRQAPGKGLEWVSSIDYLGTNTYYADSVKGRFTISRDNSKNTLYLQMNSLRAEDTAVYYCAKLTRIRPPNFDYWGQGTLVTVSS
notes: VH dAb
binding result (human IL-1α [1]): binds

B8: ABT2-108-538x/ABT1-122-511 hu IgG1/K wt (bispecific antibody, V domains shown)
VH: EVQLLESGGGLVQPGGSLRLSCAASGFTFADEGMMWVRQAPGKGLEWVSRITYSGKNTYYADSVKGRFTISRDNSKNTLYLQMNSLRAEDTAVYYCAKYTGRILGHHLFDYWGQGTLVTVSS
VL: B6 VL with K34N, S56R, Q89K
MRC5 IL-1β (human IL-1β [5]): 0.009 nM
MRC5 IL-1α (human IL-1α [2]): 259 nM
IL-1β IC50 (human IL-1β [3]): 0.006 nM and 0.009 nM and 0.01 nM

B10: ABT2-108/ABT1-122 Fab on yeast surface (Fab, V domains shown)
VH: B8 VH with D31E, E32Y, G33T, T52G, Y53Q, S54D, I103V, L104G, G105V
VL: B6 VL with K34N
EC50 (human IL-1β [6]): 5.78 nM

B11: ABT2-108-538x/ABT1-122-750x hu IgG1/K wt (bispecific antibody, V domains shown)
VH: B8 VH
VL: B6 VL with T20A, R24S, P28H, L33I, K34S, S52A, L54R, S56K, Q89K, A96N
MRC5 IL-1β (human IL-1β [5]): 0.0094 nM
MRC5 IL-1α (human IL-1α [2]): 75 nM
IL-1β IC50 (human IL-1β [3]): 0.005 nM and 0.008 nM and 0.01 nM

B24: IgG pairing ABT1-122-750X with ABT2-65-17 (bispecific antibody, V domains shown)
VH: B3 VH
VL: B6 VL with T20A, R24S, P28H, L33I, K34S, S52A, L54R, S56K, Q89K, A96N
MRC5 IL-1β (human IL-1β [5]): 1 nM
MRC5 IL-1α (human IL-1α [2]): 20 nM

B25: ABT2-108-601/ABT1-122 Fab on yeast surface (Fab, V domains shown)
VH: B8 VH with D31E, G33S, M34W, T52G, Y53Q, S54D, I103V, L104G, G105V
VL: B6 VL with K34N
EC50 (human IL-1β [6]): 0.522 nM

B26: ABT2-108-604/ABT1-122 Fab on yeast surface (Fab, V domains shown)
VH: B8 VH with D31E, E32Y, G33T, I51V, S54D, I103V, L104G, G105V
VL: B6 VL with K34N
EC50 (human IL-1β [6]): 1.35 nM
fold improvement in affinity over ABT2-108 (human IL-1β [6]): 5 fold

B29: ABT2-108-614/ABT1-122 Fab on yeast surface (Fab, V domains shown)
VH: B8 VH with D31E, E32Y, G33T, T52G, Y53Q, S54D, G105R
VL: B6 VL with K34N
EC50 (human IL-1β [6]): 1.01 nM

B30: ABT2-108-606/ABT1-122 Fab on yeast surface (Fab, V domains shown)
VH: EVQLLESGGGLVQPGGSLRLSCAASGFTFAEYTMMWVRQAPGKGLEWVSRIGQDGKNTYYRSSVKGRFTISRDNSKNTLYLQMNSLRAEDTAVYYCAKYTGRVGVHHLFDYWGQGTLVTVSS
VL: B6 VL with K34N
EC50 (human IL-1β [6]): 0.343 nM

B31: ABT2-108-605/ABT1-122 Fab on yeast surface (Fab, V domains shown)
VH: B30 VH with S62E, S63D
VL: B6 VL with K34N
EC50 (human IL-1β [6]): 0.21 nM

B32: ABT2-108-617/ABT1-122 Fab on yeast surface (Fab, V domains shown)
VH: B30 VH with R61A, S62D, V103I, G104F, V105T
VL: B6 VL with K34N
EC50 (human IL-1β [6]): 0.224 nM
fold improvement in affinity over ABT2-108 (human IL-1β [6]): 25 fold

B33: ABT2-108-616/ABT1-122 Fab on yeast surface (Fab, V domains shown)
VH: B30 VH with R61A, S62D, V103I, G104Y, V105N
VL: B6 VL with K34N
EC50 (human IL-1β [6]): 0.324 nM

B34: ABT2-108-602/ABT1-122 Fab on yeast surface (Fab, V domains shown)
VH: B30 VH with Y32E, T33K, M34Y, R61A, S62D
VL: B6 VL with K34N
EC50 (human IL-1β [6]): 0.474 nM

B35: ABT2-108-612/ABT1-122 Fab on yeast surface (Fab, V domains shown)
VH: B30 VH with R61A, S62D, V103I, G104M, V105G
VL: B6 VL with K34N
EC50 (human IL-1β [6]): 0.267 nM

B37: ABT2-108-615/ABT1-122 Fab on yeast surface (Fab, V domains shown)
VH: B30 VH with Y59V, Y60I, S62D
VL: B6 VL with K34N
EC50 (human IL-1β [6]): 0.214 nM
fold improvement in affinity over ABT2-108 (human IL-1β [6]): 25 fold

B38: ABT2-108-608/ABT1-122 Fab on yeast surface (Fab, V domains shown)
VH: B30 VH with Y60T, S62D
VL: B6 VL with K34N
EC50 (human IL-1β [6]): 0.366 nM

B39: ABT2-108-603/ABT1-122 Fab on yeast surface (Fab, V domains shown)
VH: B30 VH with G52T, Q53D, D54A, R61A, S62D
VL: B6 VL with K34N
EC50 (human IL-1β [6]): 1.35 nM

Now from value to binder:

binding result (human IL-1α [1]): binds
B9: ABT1-122-750MT (other)
VL: B6 VL with R24S, P28H, L33M, K34S, A43T, S52A, L54R, S56K, Q89K, A96N
notes: VK dAb

binding result (human IL-1α [1]): binds
B12: ABT1-122-513 (other)
VL: B6 VL with K34N, S52G, L54R, S56R, Q89K
notes: VK dAb

binding result (human IL-1α [1]): binds
B13: ABT1-122-505 (other)
VL: B6 VL with K34N, Q89K
notes: VK dAb

binding result (human IL-1α [1]): binds
B14: ABT1-122-508 (other)
VL: B6 VL with K34N, S56R
notes: VK dAb

binding result (human IL-1α [1]): binds
B15: ABT1-122-552 (other)
VL: B6 VL with Q27L, P28G, I29V, K34N
notes: VK dAb

binding result (human IL-1α [1]): binds
B16: ABT1-122-510 (other)
VL: B6 VL with A25F, Q27Y, K34N
notes: VK dAb

binding result (human IL-1α [1]): binds
B17: ABT1-122-556 (other)
VL: B6 VL with K34N, Y87H
notes: VK dAb

binding result (human IL-1α [1]): binds
B18: ABT1-122-750xH (other)
VL: DIQMTQSPSSLSASVGDRVAITCSASQHIWTEISWYQQKPGKAPKLLIYGSASRQKGVPSRFSGSGSGTDFTLTISSLQPEDFATYHCKQFAYFPNTFGQGTKVEIKR
notes: VK dAb

binding result (human IL-1α [1]): binds
B19: ABT1-122-551 (other)
VL: B6 VL with S26K, Q27F, P28N, K34N, A43T
notes: VK dAb

binding result (human IL-1α [1]): binds
B20: ABT1-122-750M (other)
VL: B18 VL with A20T, I33M, H87Y
notes: VK dAb

binding result (human IL-1α [1]): binds
B21: ABT1-122-555 (other)
VL: B6 VL with K34N, A43T
notes: VK dAb

binding result (human IL-1α [1]): binds
B22: ABT1-122-750MH (other)
VL: B18 VL with A20T, I33M
notes: VK dAb

binding result (human IL-1α [1]): binds
B23: ABT1-122-512 (other)
VL: B6 VL with K34N, S52A, S53K, L54R, S56R, Q89K
notes: VK dAb

binding result (human IL-1β [7]): binds
B27: ABT2-108-620S (other)
VH: B30 VH with A30S, Y32E, T33S, M34W, S62E, S63D, V103I, G104M, V105G
notes: VH dAb

binding result (human IL-1β [7]): binds
B28: ABT2-108-620x (other)
VH: B30 VH with Y32E, T33S, M34W, S62E, S63D, V103I, G104M, V105G
notes: VH dAb

binding result (human IL-1β [7]): binds
B36: ABT2-108-617 (other)
VH: B30 VH with R61A, S62D, V103I, G104F, V105T
notes: VH dAb
